Test results from paper PMC10397247.
One block for each binder: values may come before it.

Experiments:
P2-AA-1HGe-M = target: T1, P2-AA-1HGe-M; experiment: two-hybrid library CCmax; conditions: mean of both orientations;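 further: natural log of median RNA to DNA barcode read ratio; higher means stronger binding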
T1 chain: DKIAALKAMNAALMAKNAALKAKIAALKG

P2-AA = target: T2, P2-AA; experiment: two-hybrid library CCmax; conditions: mean of both orientations;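 further: natural log of median RNA to DNA barcode read ratio; higher means stronger binding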
T2 chain: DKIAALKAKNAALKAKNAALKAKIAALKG

P2-AA-1HGe-T = target: T3, P2-AA-1HGe-T; experiment: two-hybrid library CCmax; conditions: mean of both orientations;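 further: natural log of median RNA to DNA barcode read ratio; higher means stronger binding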
T3 chain: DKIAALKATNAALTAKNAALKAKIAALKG

P2-AA-1HGe-H = target: T4, P2-AA-1HGe-H; experiment: two-hybrid library CCmax; conditions: mean of both orientations;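 further: natural log of median RNA to DNA barcode read ratio; higher means stronger binding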
T4 chain: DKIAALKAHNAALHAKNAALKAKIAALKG

P2-AA-1HGe-A = target: T5, P2-AA-1HGe-A; experiment: two-hybrid library CCmax; conditions: mean of both orientations
T5 chain: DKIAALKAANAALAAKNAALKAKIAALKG

P2-AA-1HGe-D = target: T6, P2-AA-1HGe-D; experiment: two-hybrid library CCmax; conditions: mean of both orientations
T6 chain: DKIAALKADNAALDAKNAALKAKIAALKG

P2-AA-1HGe-Q = target: T7, P2-AA-1HGe-Q; experiment: two-hybrid library CCmax; conditions: mean of both orientations
T7 chain: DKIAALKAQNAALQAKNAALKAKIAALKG

4H3974-bH = target: T8, 4H3974-bH; experiment: two-hybrid library CCNG1
T8 chain: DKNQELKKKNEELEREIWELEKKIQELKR

4H1393-bH = target: T9, 4H1393-bH; experiment: two-hybrid library CCNG1
T9 chain: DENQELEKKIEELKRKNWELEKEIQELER

4H1710-bH = target: T10, 4H1710-bH; experiment: two-hybrid library CCNG1
T10 chain: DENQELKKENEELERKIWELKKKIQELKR

4H3414-bH = target: T11, 4H3414-bH; experiment: two-hybrid library CCNG1
T11 chain: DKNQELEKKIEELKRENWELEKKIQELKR

4H584-bH = target: T12, 4H584-bH; experiment: two-hybrid library CCNG1
T12 chain: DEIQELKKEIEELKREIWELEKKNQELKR

4H1629-bH = target: T13, 4H1629-bH; experiment: two-hybrid library CCNG1
T13 chain: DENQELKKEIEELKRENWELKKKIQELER

4H3817-bH = target: T14, 4H3817-bH; experiment: two-hybrid library CCNG1
T14 chain: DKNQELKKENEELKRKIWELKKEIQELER

4H1449-bH = target: T15, 4H1449-bH; experiment: two-hybrid library CCNG1
T15 chain: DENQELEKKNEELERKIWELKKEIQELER

4H1985-bH = target: T16, 4H1985-bH; experiment: two-hybrid library CCNG1
T16 chain: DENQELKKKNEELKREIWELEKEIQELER

4H3129-bH = target: T17, 4H3129-bH; experiment: two-hybrid library CCNG1
T17 chain: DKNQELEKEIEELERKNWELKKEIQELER

4H3631-bH = target: T18, 4H3631-bH; experiment: two-hybrid library CCNG1
T18 chain: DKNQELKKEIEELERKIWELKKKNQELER

4H3638-bH = target: T19, 4H3638-bH; experiment: two-hybrid library CCNG1
T19 chain: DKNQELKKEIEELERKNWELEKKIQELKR

4H850-bH = target: T20, 4H850-bH; experiment: two-hybrid library CCNG1
T20 chain: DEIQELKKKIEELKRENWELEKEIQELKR

4H3172-bH = target: T21, 4H3172-bH; experiment: two-hybrid library CCNG1
T21 chain: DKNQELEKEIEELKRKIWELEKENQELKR

4H906-bH = target: T22, 4H906-bH; experiment: two-hybrid library CCNG1
T22 chain: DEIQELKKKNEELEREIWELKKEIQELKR

4H619-bH = target: T23, 4H619-bH; experiment: two-hybrid library CCNG1
T23 chain: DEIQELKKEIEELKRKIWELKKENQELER

4H570-bH = target: T24, 4H570-bH; experiment: two-hybrid library CCNG1
T24 chain: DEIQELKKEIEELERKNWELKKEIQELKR

4H1804-bH = target: T25, 4H1804-bH; experiment: two-hybrid library CCNG1
T25 chain: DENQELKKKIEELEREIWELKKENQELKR

4H932-bN = target: T26, 4H932-bN; experiment: two-hybrid library CCNG1
T26 chain: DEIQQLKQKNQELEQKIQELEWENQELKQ

4H1359-bH = target: T27, 4H1359-bH; experiment: two-hybrid library CCNG1
T27 chain: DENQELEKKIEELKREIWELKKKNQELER

P2-AA-1HGe-W = target: T28, P2-AA-1HGe-W; experiment: two-hybrid library CCmax; conditions: mean of both orientations
T28 chain: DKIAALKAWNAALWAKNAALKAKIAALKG

interaction score (P2-AA-1HGe-M): 1.8 | interaction score (P2-AA): 1.8 | interaction score (P2-AA-1HGe-T): 1.71 | interaction score (P2-AA-1HGe-H): 1.57 | interaction score (P2-AA-1HGe-A): 2.34 | interaction score (P2-AA-1HGe-D): 1.6 | interaction score (P2-AA-1HGe-Q): 2.16
B1: P1-AA-1HGe-H (peptide)
chain: DEIAALEAHNAALHAENAALEAEIAALEG

interaction score (4H3974-bH): 0.477 | interaction score (4H1393-bH): -0.756 | interaction score (4H1710-bH): -0.389 | interaction score (4H3414-bH): -0.291 | interaction score (4H584-bH): 0.303 | interaction score (4H1629-bH): -0.6 | interaction score (4H3817-bH): 0.0285 | interaction score (4H1449-bH): 0.00778 | interaction score (4H1985-bH): 0.67 | interaction score (4H3129-bH): -0.249 | interaction score (4H3631-bH): 0.884 | interaction score (4H3638-bH): -0.989 | interaction score (4H850-bH): -0.848 | interaction score (4H3172-bH): -0.46 | interaction score (4H906-bH): 0.0222 | interaction score (4H619-bH): -0.165 | interaction score (4H570-bH): -1.09 | interaction score (4H1804-bH): 0.574 | interaction score (4H932-bN): -1.75 | interaction score (4H1359-bH): 0.989
B2: 4H1359-bH (peptide)
chain: DENQELEKKIEELKREIWELKKKNQELER

interaction score (P2-AA-1HGe-M): 2.29 | interaction score (P2-AA): 2.14 | interaction score (P2-AA-1HGe-T): 1.98 | interaction score (P2-AA-1HGe-A): 2.28 | interaction score (P2-AA-1HGe-W): 2.3 | interaction score (P2-AA-1HGe-D): 2.01 | interaction score (P2-AA-1HGe-Q): 1.9
B3: P1-AA-1HGe-M (peptide)
chain: DEIAALEAMNAALMAENAALEAEIAALEG
